Test results as given in publication PMC8159254.

Molecular target: NfRedAm, reductive aminase from Neosartorya fumigata (Neosartorya fumigata)
Assay: SEC-MALS

NfRedAm, reductive aminase from Neosartorya fumigata (enzyme)
stoichiometry N: 2
